Data taken from patent US20130344085A1 (published 2013).

Legend:
[1] = target: Human PCSK9 (Genbank EF692496) containing a histidine (His)8 C-terminal tag (UniProt Q8NBP7 31-692); test: BIAcore SPR
biotinylated human PCSK9 = biotinylated human PCSK9 (UniProt Q8NBP7 31-692, biotinylated (sites not given)); test: competition binding ELISA (PCSK9-LDLR)
murine PCSK9 = test: BIAcore SPR
rhesus PCSK9 = test: BIAcore SPR
Cyno PCSK9 = test: BIAcore SPR
Rat PCSK9 = test: BIAcore SPR

Binder	Kd [1] [nM]	IC50 (biotinylated human PCSK9) [nM]	Kd (murine PCSK9) [nM]	further results
YW508.20.33b (antibody, V domains shown) VH: EVQLVESGGGLVQPGGSLRLSCAASGFTFSSTAIHWVRQAPGKGLEWVARISPANGNTNYADSVKGRFTISADTSKNTAYLQMNSLRAEDTAVYYCARWIGSRELYIMDYWGQGTLVTVSS VL: DIQMTQSPSSLSASVGDRVTITCRASQDVSTAVAWYQQKPGKAPKLLIYSASFLYSGVPSRFSGSGSGTDFTLTISSLQPEDFATYYCQQAYPALHTFGQGTKVEIKR	–	–	0.0123	Kd (rhesus PCSK9): 4.09 nM; Kd (Cyno PCSK9): 0.0624 nM; Kd (Rat PCSK9): 0.0182 nM
YW508.20.06 (antibody, V domains shown) VH: EVQLVESGGGLVQPGGSLRLSCAASGFTFTGYAIHWVRQAPGKGLEWVARISPANGNTNYADSVKGRFTISADTSKNTAYLQMNSLRAEDTAVYYCARWIGSRELYIMDYWGQGTLVTVSS VL: DIQMTQSPSSLSASVGDRVTITCRASQDVSTAVAWYQQKPGKAPKLLIYSASFLYSGVPSRFSGSGSGTDFTLTISSLQPEDFATYYCQQSYPSPATFGQGTKVEIK	–	–	0.201	–
YW508.20.33b reformatted into human IgG1 having a heavy chain with SEQ ID NO: 35 and a light chain with SEQ ID NO: 36 (antibody, V domains shown) VH: EVQLVESGGGLVQPGGSLRLSCAASGFTFSSTAIHWVRQAPGKGLEWVARISPANGNTNYADSVKGRFTISADTSKNTAYLQMNSLRAEDTAVYYCARWIGSRELYIMDYWGQGTLVTVSS VL: DIQMTQSPSSLSASVGDRVTITCRASQDVSTAVAWYQQKPGKAPKLLIYSASFLYSGVPSRFSGSGSGTDFTLTISSLQPEDFATYYCQQAYPALHTFGQGTKVEIKR	0.408	1.31	–	–
YW508.20.28b (antibody, V domains shown) VH: EVQLVESGGGLVQPGGSLRLSCAASGFTFTRHTINWVRQAPGKGLEWVARISPANGNTNYADSVKGRFTISADTSKNTAYLQMNSLRAEDTAVYYCARWIGSRELYIMDYWGQGTLVTVSS VL: DIQMTQSPSSLSASVGDRVTITCRASQDVSTAVAWYQQKPGKAPKLLIYSASFLYSGVPSRFSGSGSGTDFTLTISSLQPEDFATYYCQQSYRIQPTFGQGTKVEIK	–	–	0.323	–
YW508.20.04b (antibody, V domains shown) VH: EVQLVESGGGLVQPGGSLRLSCAASGFTFTGYAIHWVRQAPGKGLEWVARISPANGNTNYADSVKGRFTISADTSKNTAYLQMNSLRAEDTAVYYCARWIGSRELYIMDYWGQGTLVTVSS VL: DIQMTQSPSSLSASVGDRVTITCRASQDVSTAVAWYQQKPGKAPKLLIYSASFLYSGVPSRFSGSGSGTDFTLTISSLQPEDFATYYCQQSYPAPATFGQGTKVEIK	–	–	0.117	–
YW508.20.84 (antibody, V domains shown) VH: EVQLVESGGGLVQPGGSLRLSCAASGFTFTGYAIHWVRQAPGKGLEWVARISPANGNTNYADSVKGRFTISADTSKNTAYLQMNSLRAEDTAVYYCARWIGSRELYIMDYWGQGTLVTVSS VL: DIQMTQSPSSLSASVGDRVTITCRASQDVSTAVAWYQQKPGKAPKLLIYSASFLYSGVPSRFSGSGSGTDFTLTISSLQPEDFATYYCQQSYPAPSTFGQGTKVEIK	–	–	0.135	–

More lines, main results first:

Kd [1] [nM]	IC50 (biotinylated human PCSK9) [nM]	Kd (murine PCSK9) [nM]	Binder	further results
0.481	1.39	–	anti-PCSK9 antibody 508.20.84 (antibody, V domains shown) VH: EVQLVESGGGLVQPGGSLRLSCAASGFTFTGYAIHWVRQAPGKGLEWVARISPANGNTNYADSVKGRFTISADTSKNTAYLQMNSLRAEDTAVYYCARWIGSRELYIMDYWGQGTLVTVSS VL: DIQMTQSPSSLSASVGDRVTITCRASQDVSTAVAWYQQKPGKAPKLLIYSASFLYSGVPSRFSGSGSGTDFTLTISSLQPEDFATYYCQQSYPAPSTFGQGTKVEIK	–
–	15.2	–	YW508.20b (antibody, V domains shown) VH: EVQLVESGGGLVQPGGSLRLSCAASGFTFTGYAIHWVRQAPGKGLEWVARISPANGNTNYADSVKGRFTISADTSKNTAYLQMNSLRAEDTAVYYCARWIGSRELYIMDYWGQGTLVTVSS VL: DIQMTQSPSSLSASVGDRVTITCRASQDVSTAVAWYQQKPGKAPKLLIYSASFLYSGVPSRFSGSGSGTDFTLTISSLQPEDFATYYCQQSYTTPPTFGQGTKVEIK	–
0.628	1	–	anti-PCSK9 antibody 508.20.06 (antibody, V domains shown) VH: EVQLVESGGGLVQPGGSLRLSCAASGFTFTGYAIHWVRQAPGKGLEWVARISPANGNTNYADSVKGRFTISADTSKNTAYLQMNSLRAEDTAVYYCARWIGSRELYIMDYWGQGTLVTVSS VL: DIQMTQSPSSLSASVGDRVTITCRASQDVSTAVAWYQQKPGKAPKLLIYSASFLYSGVPSRFSGSGSGTDFTLTISSLQPEDFATYYCQQSYPSPATFGQGTKVEIK	–
0.349	1.05	–	anti-PCSK9 antibody 508.20.28b (antibody, V domains shown) VH: EVQLVESGGGLVQPGGSLRLSCAASGFTFTRHTINWVRQAPGKGLEWVARISPANGNTNYADSVKGRFTISADTSKNTAYLQMNSLRAEDTAVYYCARWIGSRELYIMDYWGQGTLVTVSS VL: DIQMTQSPSSLSASVGDRVTITCRASQDVSTAVAWYQQKPGKAPKLLIYSASFLYSGVPSRFSGSGSGTDFTLTISSLQPEDFATYYCQQSYRIQPTFGQGTKVEIK	–
0.757	0.92	–	anti-PCSK9 antibody 508.20.04b (antibody, V domains shown) VH: EVQLVESGGGLVQPGGSLRLSCAASGFTFTGYAIHWVRQAPGKGLEWVARISPANGNTNYADSVKGRFTISADTSKNTAYLQMNSLRAEDTAVYYCARWIGSRELYIMDYWGQGTLVTVSS VL: DIQMTQSPSSLSASVGDRVTITCRASQDVSTAVAWYQQKPGKAPKLLIYSASFLYSGVPSRFSGSGSGTDFTLTISSLQPEDFATYYCQQSYPAPATFGQGTKVEIK	–
